Results as given in publication PMC6116751, “An enzymatic system for decolorization of wastewater dyes using immobilized CueO laccase‐like multicopper oxidase on poly‐3‐hydroxybutyrate” (Microbial Biotechnology, 2018).

Substrate: COc1cccc(OC)c1O
Experiment: purified protein
Type: biochemical, Escherichia coli
Conditions: soluble enzyme, 20 mM Tris pH 6.5, 10 μM Cu2+, 30 °C

B1: BioF–CueO (CueO laccase-like multicopper oxidase fused to BioF tag) (Escherichia coli K-12) (protein)
chain: AERPTLPIPDLLTTDARNRIQLTIGAGQSTFGGKTATTWGYNGNLLGPAVKLQRGKAVTVDIYNQLTEETTLHWHGLEVPGEVDGGPQGIIPPGGKRSVTLNVDQPAATCWFHPHQHGKTGRQVAMGLAGLVVIEDDEILKLMLPKQWGIDDVPVIVQDKKFSADGQIDYQLDVMTAAVGWFGDTLLTNGAIYPQHAAPRGWLRLRLLNGCNARSLNFATSDNRPLYVIASDGGLLPEPVKVSELPVLMGERFEVLVEVNDNKPFDLVTLPVSQMGMAIAPFDKPHPVMRIQPIAISASGALPDTLSSLPALPSLEGLTVRKLQLSMDPMLDMMGMQMLMEKYGDQAMAGMDHSQMMGHMGHGNMNHMNHGGKFDFHHANKINGQAFDMNKPMFAAAKGQYERWVISGVGDMMLHPFHIHGTQFRILSENGKPPAAHRAGWKDTVKVEGNVSEVLVKFNHDAPKEHAYMAHCHLLEHEDTGMMLGFTV
notes: signal peptide absent (the primer starts at mature Ala-Glu-Arg-Pro-Thr); cueO amplified from pCueO (pASK-IBA3 derivative); plasmid pDB2 (pET-21d); expressed in E. coli BL21(DE3), butyl sepharose; tag kept
B1 gave a Km of 400 ± 100 µM, a kcat of 4.3 ± 0.1 s⁻¹ and a kcat/Km of 10700 M⁻¹ s⁻¹.
